The results in this text go back to paper PMC10786891, “Massively parallel profiling of RNA-targeting CRISPR-Cas13d”.

T1: EsCas13d, nuclease-dead (Eubacterium siraeum, UniProt B0MS50, R295A;H300A;R849A;H854A)
T1 sequence: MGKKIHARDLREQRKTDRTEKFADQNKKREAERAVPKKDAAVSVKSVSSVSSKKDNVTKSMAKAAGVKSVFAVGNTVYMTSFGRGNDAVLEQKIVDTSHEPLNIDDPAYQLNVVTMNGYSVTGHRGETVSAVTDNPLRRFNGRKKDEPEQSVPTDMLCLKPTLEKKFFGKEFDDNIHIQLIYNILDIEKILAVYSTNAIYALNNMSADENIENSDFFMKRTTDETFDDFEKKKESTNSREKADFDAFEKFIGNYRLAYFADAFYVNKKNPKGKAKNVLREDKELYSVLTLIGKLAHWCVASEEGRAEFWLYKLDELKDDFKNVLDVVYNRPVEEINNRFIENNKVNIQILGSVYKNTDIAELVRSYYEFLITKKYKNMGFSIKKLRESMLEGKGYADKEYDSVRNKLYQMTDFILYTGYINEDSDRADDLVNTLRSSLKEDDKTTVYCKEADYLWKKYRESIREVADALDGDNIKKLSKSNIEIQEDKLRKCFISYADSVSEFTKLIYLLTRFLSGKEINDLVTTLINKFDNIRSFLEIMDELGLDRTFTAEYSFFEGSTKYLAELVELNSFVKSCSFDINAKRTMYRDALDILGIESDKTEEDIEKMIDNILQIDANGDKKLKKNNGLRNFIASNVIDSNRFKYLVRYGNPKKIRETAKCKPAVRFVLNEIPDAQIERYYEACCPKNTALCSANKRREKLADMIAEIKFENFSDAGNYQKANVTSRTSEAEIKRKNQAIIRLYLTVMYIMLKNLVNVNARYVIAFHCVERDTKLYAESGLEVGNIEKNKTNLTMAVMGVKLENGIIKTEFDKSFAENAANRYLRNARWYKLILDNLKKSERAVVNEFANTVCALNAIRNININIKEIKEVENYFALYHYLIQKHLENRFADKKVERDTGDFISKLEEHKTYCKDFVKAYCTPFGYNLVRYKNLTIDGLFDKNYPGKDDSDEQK

B1: target 1 C2G,G17C (mixed)
RNA 1: CACCCGUGCAAAAAUGCAGGGGUCUAAAACUGAGCGGAUAACCUCUCUAUGG
RNA 2: GGGAAUGGAUCCACAUCUACGAAUUCGUACCAUACAGAGGUUAUCCGCUGACCGAGAUCGGAAGAGCACACGU
B2: target 2 MT 5'PFS CAG 3'PFS UGA (mixed)
RNA 1: CACCCGUGCAAAAUUGCAGGGGUCUAAAACCUUCUCCAAAUUGUUUCAUCCU
RNA 2: GGGAAUGGAUCCACAUCUACGAAUUCCAGAGGAUGAAACAAUUUGGAGAAGUGAAGAUCGGAAGAGCACACGU
B3: target 2 MT 5'PFS CUC 3'PFS UUC (mixed)
RNA 1: B2 RNA 1
RNA 2: B2 RNA 2 with A28U, G29C, G53U, A54C
B4: target 2 MT 5'PFS ACA 3'PFS AUC (mixed)
RNA 1: B2 RNA 1
RNA 2: B2 RNA 2 with C27A, A28C, G29A, U52A, G53U, A54C
B5: target 2 MT 5'PFS CAG 3'PFS ACC (mixed)
RNA 1: B2 RNA 1
RNA 2: B2 RNA 2 with U52A, G53C, A54C
B6: target 2 MT 5'PFS CUC 3'PFS UUA (mixed)
RNA 1: B2 RNA 1
RNA 2: B2 RNA 2 with A28U, G29C, G53U
B7: target 2 MT 5'PFS GAU 3'PFS UCG (mixed)
RNA 1: B2 RNA 1
RNA 2: B2 RNA 2 with C27G, G29U, G53C, A54G
B8: target 2 MT 5'PFS UAU 3'PFS GCC (mixed)
RNA 1: B2 RNA 1
RNA 2: B2 RNA 2 with C27U, G29U, U52G, G53C, A54C
B9: target 2 MT 5'PFS UUA 3'PFS UGU (mixed)
RNA 1: B2 RNA 1
RNA 2: B2 RNA 2 with C27U, A28U, G29A, A54U
B10: target 2 MT 5'PFS CAC 3'PFS ACG (mixed)
RNA 1: B2 RNA 1
RNA 2: B2 RNA 2 with G29C, U52A, G53C, A54G
B11: target 2 MT 5'PFS CAG 3'PFS UGC (mixed)
RNA 1: B2 RNA 1
RNA 2: B2 RNA 2 with A54C
B12: target 2 MT 5'PFS GAU 3'PFS UCA (mixed)
RNA 1: B2 RNA 1
RNA 2: B2 RNA 2 with C27G, G29U, G53C
B13: target 2 MT 5'PFS CAC 3'PFS ACA (mixed)
RNA 1: B2 RNA 1
RNA 2: B2 RNA 2 with G29C, U52A, G53C
B14: target 2 MT 5'PFS CUC 3'PFS UUU (mixed)
RNA 1: B2 RNA 1
RNA 2: B2 RNA 2 with A28U, G29C, G53U, A54U
B15: target 2 MT 5'PFS AAG 3'PFS ACU (mixed)
RNA 1: B2 RNA 1
RNA 2: B2 RNA 2 with C27A, U52A, G53C, A54U
B16: target 2 MT 5'PFS GAU 3'PFS UCC (mixed)
RNA 1: B2 RNA 1
RNA 2: B2 RNA 2 with C27G, G29U, G53C, A54C
B17: target 2 MT 5'PFS ACA 3'PFS AUA (mixed)
RNA 1: B2 RNA 1
RNA 2: B2 RNA 2 with C27A, A28C, G29A, U52A, G53U

Positions count from the first letter of the chain named. In names and notes the source's numbering stands.

For this series, the target named is T1, EsCas13d, nuclease-dead. The experiment in a line: crRNA (strand 1, pre-loaded); Mg2+; 40 mM Tris-HCl pH 7.5, 150 mM NaCl, 6 mM MgCl2, 1 mM DTT, 0.1% Tween-20, 0.2 mg/ml BSA; 25 C; 10 min per concentration, then washed. The note with it: tags: His6-TwinStrep-SUMO cleaved; N-terminal SNAP kept (SNAP-Surface 488); label: 3' end held by stalled T7 RNA polymerase.
Take B1: the Kd (as a rule, the free concentration of one partner at which half of the binding sites on the other are occupied at equilibrium, for simple one-to-one binding) was 50 ± 6 nM.

B2 came in with a Kd of 6.8 ± 1.4 nM.

B3 showed a Kd of 6.5 ± 1.6 nM.

In turn, B4 came in with a Kd of 6.2 ± 1.3 nM.

B5: the Kd came to 5.5 ± 1.1 nM.

In the case of B6, binding was characterised by a dissociation constant (Kd) of 4.9 ± 0.7 nM.

Take B7: binding was characterised by a dissociation constant (Kd) of 15.2 ± 1.5 nM.

For B8, the Kd amounted to 43 ± 20 nM.

For B9, the Kd came out at 23.1 ± 3 nM.

Consider B10, for which the Kd amounted to 2.8 ± 0.8 nM.

The molecule B11 yielded a Kd of 4.7 ± 1.2 nM.

Molecule B12 came in with a Kd of 21 ± 7 nM.

Take B13: binding was put at a Kd of 2.5 ± 0.6 nM.

For the molecule B14, the Kd turned out to be 5.3 ± 0.7 nM.

Molecule B15 showed a Kd of 9 ± 1.3 nM.

For the molecule B16, the dissociation constant (Kd) is about 80 nM.

Turning to B17, the Kd is 5.7 ± 1.1 nM.
